This data set relates to Bacillus subtilis. The data set can be described thus: cleaved RNA product abundance (RNA/gDNA barcode ratio) relative to median wild-type variant (ratio to wild type); higher = more accumulation of the downstream cleavage product. The procedure, abridged: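 The B. subtilis chromosome carried reporter mRNAs, truncated aprE or tetM, containing barcoded RNase Y cleavage-site windows mutagenized using oligos with a 9% error rate. After growth in LB at 37°C from OD600 0.0003 to 0.3, cleaved RNA was gel-selected, reverse transcribed and barcode-sequenced next to genomic DNA barcodes, with UMI collapsing. Each construct's RNA:gDNA barcode ratio was scaled to the median construct with the unmutated site. That scaled ratio is reported as cleaved product abundance.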

Setting [1] is: experiment (reporter, strain, medium): exp 8a: truncated aprE reporter, strain BJT201 with 2% xylose (RNase J1 expressed), cleavage site: glnRA (positions -5 to +31 mutated).
Setting [2] is: experiment (reporter, strain, medium): exp 4a: truncated aprE reporter, strain BJT201 with 2% xylose (RNase J1 expressed), cleavage site: cggR-gapA (positions -7 to +36 mutated).
The mark [3] stands for this setting: experiment (reporter, strain, medium): exp 2b: truncated aprE reporter, strain BJT200, cleavage site: cggR-gapA (positions -7 to +36 mutated).
The mark [4] stands for this setting: experiment (reporter, strain, medium): exp 6: tetM reporter, strain 168, cleavage site: cggR-gapA (positions -7 to +36 mutated).

In the case of “CGACATGTCCCGCTTCTTTCATTAATCCGTTAGCAACTGTTTTGCTATATACATTAGCCTTTTAAGAGGAGGAAT”, under setting [1], the “cleaved RNA product abundance” value was 0.519.
On to “CGACATGTCCCGCTTCTTTCATTAATCCGTAAGCAACTGTTTTGCTATATACAATTACCTTTTAAGAGGAGGAAT”, for which, under setting [1], the “cleaved RNA product abundance” value amounted to 0.478.
With “CGACATGTCCCGCTTCTTTCATTAATCCGTTAGCAACTGTTTTGCTATATACATATAACTTTTAAGAGGAGGAAT”, the “cleaved RNA product abundance” value under setting [1] is 1.73.
As for “CGACATGTCCCGCTTCTTTCATTAATCCATTAGAAACTGTTTTGCTATATACATTTACCTTTTAAGAGGAGGAAT”, the “cleaved RNA product abundance” value under setting [1] was determined as 0.244.
On to “ACAGACGAAGGAGCCGCAAAGAAGTTATTTAGGGATGATTAATCCCTCAATATAAATATCTCTCACTTATTTAAA”, for which the “cleaved RNA product abundance” value under setting [2] stood at 0.659.
Regarding “CGACATGTCCCGCTTCTTTCATTAATACGTTAGCAACTGTTTTGCCATATACATTTACCTTTTAAGAGGAGGAAT”, the “cleaved RNA product abundance” value under setting [1] came out at 0.23.
Consider “ACAGACGAAGGAGCCGCAAAGAAGTTATTCAGGGATGAATTATCCCTCAATATAAATATCTCTCACTTATTTAAA”, for which the “cleaved RNA product abundance” value reads like this: under setting [3], 0.56; under setting [2], 0.629.
“ACAGACGAAGGAGCCGCACAGAAGTTATTAAGGGATGAATAATACCTCAATATAAATATCTCTCACTTATTTAAA”: under setting [3], the “cleaved RNA product abundance” value was found to be 0.118.
On to “CGACATGTCCCGCTTCTTTCATTAATCCGTTAGCAACTGTTTTGCTATATACATTAACCTTTTAAGAGGAGGAAT”, for which, under setting [1], the “cleaved RNA product abundance” value was 1.37.
Regarding “ACAGACGAAGGAGCTGCAAAGAAGTTATTAAGGGATGAATAATCCCTCAATATAAATATCTCTCACTTATTTAAA”, under setting [4], the “cleaved RNA product abundance” value is 0.987.
As to “CGACATGTCCCGCTTCTTTCATTAATCCTTTAGCAACTGTTTTGCTATATACATTGACCTTTTAAGAGGAGGAAT”, the “cleaved RNA product abundance” value under setting [1] was 0.333.
As for “CGACATGTCCCGCTTCTTTCATTATTCCGTTTGCAACTGTTTTGCTATATACATTTACCTTTTAAGAGGAGGAAT”, the “cleaved RNA product abundance” value under setting [1] amounted to 0.543.
In the case of “ACAGACGAAGGAGCCGCAAATAAGTTATTAGGGGATGAATAATCCCTCAATATAAATATCTCTCACTTATTTAAA”, the “cleaved RNA product abundance” value under setting [3] came to 0.603.
With “ACAGACGAAGGAGCCGCAAAGAAGTTATTACGGGATAAATAATCCCTCAATATAAATATCTCTCACTTATTTAAA”, the “cleaved RNA product abundance” value under setting [2] stood at 0.416.
Turning to “CGACATGTCCCGCTTCTTTCATTAATCCGTTAGCAACTGTTTTGCTATATACCTTTACCTTTTAAGAGGAGGAAT”, under setting [1], the “cleaved RNA product abundance” value worked out at 0.283.
As to “ACAGACGAAGGAGCCGCAAAGAATTTCTTAAGGGATGAATAATCCCTCAATATAAATATCTCTCACTTATTTAAA”, the “cleaved RNA product abundance” value under setting [2] turned out to be 0.217.
Regarding “CGACATGTCCCGCTTCTTTCATTAATCCGTTAGCGACTGTTTTGCTATATACATTTAACTTTTAAGAGGAGGAAT”, the “cleaved RNA product abundance” value under setting [1] is 0.418.
On to “ACAGACGAAGGAGCCGCAAACAAATTATTAAGGGATGAATAATCCCTCAATATAAATATCTCTCACTTATTTAAA”, for which the “cleaved RNA product abundance” value is, setting by setting: under setting [3], 0.711; under setting [2], 0.696.
For the sequence “ACAGACGAAGGAGCCGCAAAGAAGTAAATAAGGAATGAATAATCCCTCAATATAAATATCTCTCACTTATTTAAA”, the “cleaved RNA product abundance” value under setting [2] is 0.0667.
As for “CGACATGTCCCGCTTCTTTCATTAATCCTTTAGCAACTGTTTTGCTTTATACATTTACCTTTTAAGAGGAGGAAT”, the “cleaved RNA product abundance” value under setting [1] amounted to 0.174.
As for “CGACATGTCCCGCTTCTTTCATTAATCCGTTATCAACTGTTTTGCTATATACATTTCCCTTTTAAGAGGAGGAAT”, the “cleaved RNA product abundance” value under setting [1] was 0.124.
With “ACAGACGAAGGAGCCGCAAAGAAGTTATTAAGGTATGAATAATCTCTCAATATAAATATCTCTCACTTATTTAAA”, the “cleaved RNA product abundance” value under setting [2] amounted to 0.162.
For the sequence “ACAGACGAAGGAGCCGCAAAAAAGTTAATAAGGGATGAATATTCCCTCAATATAAATATCTCTCACTTATTTAAA”, the “cleaved RNA product abundance” value under setting [2] was 0.21.
Consider “ACAGACGAAGGAGCCGCAAAGAAGTTATTAAGGGATGAATAGTCCCTCAAAATAAATATCTCTCACTTATTTAAA”, for which the “cleaved RNA product abundance” value under setting [2] worked out at 0.31.
“ACAGACGAAGGAGCCGCAAAGAAGTTATTAAGGGATGAATAATTGCTCAATATAAATATCTCTCACTTATTTAAA”: the “cleaved RNA product abundance” value came out at 0.0946 under setting [3] and 0.0655 under setting [2].
As to “ACAGACGAAGGAGCCGCAAACACGTTATTAAGGGATGAATAATCCCTCAATATAAATATCTCTCACTTATTTAAA”, the “cleaved RNA product abundance” value under setting [2] was 1.21.
“ACAGACGAAGGAGCCGCAAAGAGGTTATTAAGGGATGAATAATCCCTCAATATAAATATCTCTCACTTATTTAAA”: the “cleaved RNA product abundance” value under setting [3] was determined as 0.814, the “cleaved RNA product abundance” value under setting [2] came out at 0.754 and the “cleaved RNA product abundance” value under setting [4] is 0.737.
Consider “ACAGACGAAGGAGCCGCAAAGAAGTTATTAACGGTTGAATAATCCCTCAATATAAATATCTCTCACTTATTTAAA”, for which the “cleaved RNA product abundance” value under setting [3] was 0.0654 and the “cleaved RNA product abundance” value under setting [2] worked out at 0.113.
With “CGACATGTCCCGCTTCTTTCATTAATCCGTTAGCAACTGTTTTGCTATATACAATTACCTTTTAAGAGGAGGAAT”, the “cleaved RNA product abundance” value under setting [1] amounted to 0.983.
Take “ACAGACGAAGGAGCCGCAAAGAAGTGATTAAGGGATAAATAATCCCTCAATATAAATATCTCTCACTTATTTAAA”: the “cleaved RNA product abundance” value under setting [2] amounted to 0.246.
Turning to “CGACATGTCCCGCTTCTTTCATTAATCCGTTAGCAACTGTATTGCTATATTCATTTACCTTTTAAGAGGAGGAAT”, under setting [1], the “cleaved RNA product abundance” value was 0.16.
With “ACAGACGAAGGAGCCGCAAAGAATTTTTTAAGGGATGAATAATCCCTCAATATAAATATCTCTCACTTATTTAAA”, the “cleaved RNA product abundance” value under setting [2] came out at 0.216.
Consider “ACAGACGAAGGAGCCGCAAAGAAGTTATTAAGGGATGAAAAATCTCTCAATATAAATATCTCTCACTTATTTAAA”, for which the “cleaved RNA product abundance” value under setting [2] came to 0.506.
On to “ACAGACGAAGGAGCCGCAAAGATGTTATTAAGGGATGAATAATTCCTCAATATAAATATCTCTCACTTATTTAAA”, for which, under setting [2], the “cleaved RNA product abundance” value turned out to be 0.89.
Regarding “ACAGACGAAGGAGCCGCAAAGAAGTTATTAAGGGATGAATAATACCTGAATATAAATATCTCTCACTTATTTAAA”, the “cleaved RNA product abundance” value is, setting by setting: under setting [3], 0.093; under setting [2], 0.107.
In the case of “ACAGACGAAGGAGCCGCAAAGAAGTTATAAAGGGATGAATAATCCCTCACTATAAATATCTCTCACTTATTTAAA”, the “cleaved RNA product abundance” value under setting [2] stood at 0.322.
As for “ACAGACGAAGGAGCCGCAAAGAAATTATTAAGGGATGAATAATCCCTCAATAAAAATATCTCTCACTTATTTAAA”, the “cleaved RNA product abundance” value under setting [3] was found to be 0.178.
With “ACAGACGAAGGAGCCGCAAAGAAGTTATTAAGATATGAATAATCCCTCAATATAAATATCTCTCACTTATTTAAA”, the “cleaved RNA product abundance” value reads like this: under setting [3], 0.0758; under setting [2], 0.115.
The like results for “ACAGACGAAGGAGCCGCAAAGAACTTATTAAGGGATGAATAATCCATCAATATAAATATCTCTCACTTATTTAAA” were, in that order, 0.15 and 0.209.
As to “ACAGACGAAGGAGCCGCAAAGAAGTTATCAAGGGATTAATAATCCCTCATTATAAATATCTCTCACTTATTTAAA”, the “cleaved RNA product abundance” value under setting [2] turned out to be 0.314.
“CGACATGTCCCGCTTCTTTCATTAATCCGTTAGCAACTGTATTGCAATATACATTTACCTTTTAAGAGGAGGAAT”: under setting [1], the “cleaved RNA product abundance” value was 0.678.
Take “ACAGACGAAGGAGCCGCATAGAAGTTATTAAGAGATGAATAATCCCTCAATATAAATATCTCTCACTTATTTAAA”: under setting [2], the “cleaved RNA product abundance” value was found to be 0.154.
Consider “CGACATGTCCCGCTTCTTTCATTAATCCGTTAGCAACTGTTTTGCTATATACACTTACCTTTTAAGAGGAGGAAT”, for which the “cleaved RNA product abundance” value under setting [1] worked out at 0.964.

For the origin of these results see the supplement of paper PMC11780869.
